The values that follow come from PMC3983792 (Nature, 2012).

Experiment [1] has as its target menin-MLL1_(MBM-LBM) complex (human) (UniProt O00255). Briefly: ITC.
In experiment [2] the target is T1, meninΔ (human menin with the unstructured loop, residues 460–519, deleted) (human, UniProt O00255-2 1-610, residues 460–519 deleted).
T1 sequence (looked up): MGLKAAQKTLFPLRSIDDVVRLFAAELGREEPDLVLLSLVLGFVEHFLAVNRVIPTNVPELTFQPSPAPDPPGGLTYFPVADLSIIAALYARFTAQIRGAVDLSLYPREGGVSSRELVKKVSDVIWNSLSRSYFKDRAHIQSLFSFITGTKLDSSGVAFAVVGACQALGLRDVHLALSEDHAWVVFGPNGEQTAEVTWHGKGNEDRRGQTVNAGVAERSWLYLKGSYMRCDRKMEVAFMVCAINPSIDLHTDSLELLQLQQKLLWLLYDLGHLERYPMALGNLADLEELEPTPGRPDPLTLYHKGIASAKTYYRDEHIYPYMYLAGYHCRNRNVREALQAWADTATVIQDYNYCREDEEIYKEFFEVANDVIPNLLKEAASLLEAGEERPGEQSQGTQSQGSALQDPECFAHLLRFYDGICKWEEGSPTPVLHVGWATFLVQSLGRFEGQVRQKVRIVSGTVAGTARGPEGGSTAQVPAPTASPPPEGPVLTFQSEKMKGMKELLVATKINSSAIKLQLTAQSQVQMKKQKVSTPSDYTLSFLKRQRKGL
Briefly: crystal structure.

Experiment [3] has as its target T1, meninΔ (human menin with the …). Briefly: ITC.
The target in experiment [4] is T2, full-length menin (human, UniProt O00255-2 1-610).
T2 sequence (looked up): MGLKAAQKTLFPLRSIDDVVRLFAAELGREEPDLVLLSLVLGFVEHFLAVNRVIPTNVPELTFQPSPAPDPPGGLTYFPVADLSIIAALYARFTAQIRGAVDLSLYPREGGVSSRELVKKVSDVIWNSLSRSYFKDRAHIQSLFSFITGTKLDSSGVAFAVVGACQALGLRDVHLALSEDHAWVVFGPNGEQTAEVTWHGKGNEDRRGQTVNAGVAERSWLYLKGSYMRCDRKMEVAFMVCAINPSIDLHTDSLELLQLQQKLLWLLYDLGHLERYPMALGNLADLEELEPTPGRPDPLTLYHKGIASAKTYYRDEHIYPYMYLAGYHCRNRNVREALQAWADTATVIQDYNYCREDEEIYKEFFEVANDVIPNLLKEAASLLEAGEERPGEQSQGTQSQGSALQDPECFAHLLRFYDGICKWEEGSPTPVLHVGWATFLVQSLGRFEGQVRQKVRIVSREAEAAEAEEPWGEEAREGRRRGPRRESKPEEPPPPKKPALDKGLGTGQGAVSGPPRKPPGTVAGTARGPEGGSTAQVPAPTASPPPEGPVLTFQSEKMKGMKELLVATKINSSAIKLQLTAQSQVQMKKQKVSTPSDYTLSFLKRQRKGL
Briefly: pull-down.

In experiment [5] the target is T2, full-length menin. Briefly: ITC.

As for “LEDGFIBD (IBD domain of LEDGF) (domain or fragment)”, in experiment [1], the Kd amounted to 470 nM.

B1: MLL1_(MBM-LBM)Δ (MLL1 residues 6–153 with loops 16–22 and 36–102 deleted) (domain or fragment, human, UniProt Q03164 6-153, looked up)
chain: RWRFPARPGTGRRGLGGAPRQRVPALLRVGPGFDAALQVSAAIGTNLRRFRAVFGESGGGGGSGEDEQFLGFGS
As for B1, the binding result in experiment [2] is on record as “binds”.
With SPGRLFPGAPPTAAAGSMMKK (peptide, UniProt P17535 27-47, looked up) [JunDMBM (JunD residues 27–47, menin-binding motif)], the binding result in experiment [3] is on record as “binds”.
In the case of SPGRLFPGAPPTAKK (peptide, UniProt P17535 27-47, looked up) [JunDMBMΔ (JunD residues 27–47 with residues 40–45 deleted)], the binding result in experiment [2] was “binds”.

B2: GST-fused JunD (residues 1–150) (domain or fragment, human, UniProt P17535 1-150, looked up)
chain: METPFYGDEALSGLGGGASGSGGSFASPGRLFPGAPPTAAAGSMMKKDALTLSLSEQVAAALKPAAAPPPTPLRADGAPSAAPPDGLLASPDLGLLKLASPELERLIIQSNGLVTTTPTSSQFLYPKVAASEEQEFAEGFVKALEDLHKQ
As to B2, the binding result with full-length menin [4] was “binds”.
Consider ARGRFPGRPRGAGGGGGRGG (peptide, UniProt Q9UMN6 16-35, looked up) [MLL2MBM (MLL2 residues 16–35)], for which the Kd in experiment [3] was 120 nM.
Consider RWRFPARPGTTGGGGGGGRR (peptide, UniProt Q03164 6-25, looked up) [MLL1MBM (menin-binding motif, residues 6–25 of MLL1)], for which binding in experiment [3] was put at a Kd of 82 nM. Also, the binding result with full-length menin [5] is listed as “binds”.
RWRFPARPGTTGGGGGGGEE (peptide, UniProt Q03164 6-25, looked up) [MLL1MBM with 24RR25 substituted with two glutamates]: the “fold decrease in binding affinity against wild-type MLL1MBM” value in experiment [3] came out at 21 fold.
